# Laboratory results published in patent US12233115B2, “Long-acting parathyroid hormone” (Extend Biosciences, Inc., priority 2022, dated 2025).
# Like-named read-outs stand apart in the source and are kept apart here.
# How the values were obtained:
# [1] = test system: healthy human participants; test: Single dose pharmacodynamics of EXT608 in healthy humans (serum calcium, endogenous PTH(1-84), urinary calcium); type: in vivo; settings: any dose level tested, about 36 hours post-administration (data not shown)
# Description: EXT608 vastly improves the serum half-life in humans in a dose-dependent manner. Sterile EXT608 formulations were prepared at a concentration of 0.4 mg/ml in 10 mM sodium acetate buffer pH=5.5, 4.5% mannitol, and 0.25% Polysorbate 80 and filled into sterile vials. Healthy human participants were administered EXT608 by subcutaneous injection in the abdomen at doses of 0, 36, 108, 216, or 324 micrograms (n=3). Pharmacodynamics: Blood samples were collected at −24, −1, 0.5, 1, 2, 4, 8, 12, 18, 24, 36, 48, and 72 hours relative to dosing as well as on Days 5, 7, 14, 21, and 28 after dosing. They were processed to serum and submitted to Quest Diagnostics for standard blood chemistry analysis including total calcium and albumin. EXT608 raised serum calcium levels in a dose-dependent fashion and was able to maintain elevated calcium levels for 24 h. Blood samples (1.5 ml) were collected at −1, 4, 24, 48, and 72 hours relative to dosing as well as on Days 5, 7, 14, 21, and 28 after dosing. They were processed to EDTA plasma and submitted to Quest Diagnostics for intact PTH(1-84) analysis (Test Code #35202). In healthy humans, under conditions of elevated serum calcium, the body will attempt to restore normal calcium levels by a variety of mechanisms including suppression of endogenous PTH(1-84). […]
# [2] = molecular target: T1, vitamin D binding protein (DBP) (Homo sapiens, UniProt P02774); test: Bio-layer interferometry binding of DBP to immobilized biotinylated conjugate; settings: BLI steady state fit, DBP 0-75 μM; read-out: KD (binding equilibrium constant)
# T1 construct: purchased Athens Research and Technology 16-16-070307
# T1 sequence (P02774 17-474): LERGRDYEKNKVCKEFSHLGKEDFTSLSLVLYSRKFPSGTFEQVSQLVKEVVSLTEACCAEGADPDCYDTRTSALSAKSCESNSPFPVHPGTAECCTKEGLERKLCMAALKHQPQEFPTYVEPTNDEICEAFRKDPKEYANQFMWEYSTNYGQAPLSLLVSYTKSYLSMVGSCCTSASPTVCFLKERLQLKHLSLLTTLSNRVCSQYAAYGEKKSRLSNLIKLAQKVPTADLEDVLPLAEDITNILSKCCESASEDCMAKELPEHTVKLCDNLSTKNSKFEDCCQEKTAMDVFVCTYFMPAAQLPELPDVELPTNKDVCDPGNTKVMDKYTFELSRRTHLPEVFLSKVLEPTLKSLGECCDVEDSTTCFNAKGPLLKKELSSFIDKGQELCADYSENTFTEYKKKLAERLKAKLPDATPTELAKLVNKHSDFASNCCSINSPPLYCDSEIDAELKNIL
# Description: EXT607 and EXT608 were biotinylated using the EZ-Link Sulfo-NHS Biotin No-Weigh kit (Thermo Fisher Scientific, Waltham, MA, Catalog No. PIA39256). One mmol of biotin was reacted with 1 mmol of conjugate for 1 hour at room temperature. Unbound biotin was separated from biotinylated conjugate with a PD-10 desalting column (GE Lifesciences/Cytiva, Marlborough, MA, Catalog No. 17085101). The biotinylation ratio was quantitated using the Pierce Biotin Quantitation Kit (Thermo Fisher Scientific, Waltham, MA, Catalog No. PI28005). DBP was purchased from Athens Research and Technology (Athens, GA, Catalog No. 16-16-070307).
# Affinity measurements were collected on the Octet Red96 using prehydrated Dip and Read Streptavidin (SA) Biosensors (ForteBio, Fremont, CA, Catalog No. 18-5021). Reagents were diluted into phosphate buffered saline (PBS) with 0.02% Tween 20 in a black 96-well plate. Biotinylated EXT607 or EXT608 were prepared at a biotin concentration of 50 μg/mL and loaded onto the SA tips for 2 minutes. A buffer-only negative loading control was used to measure non-specific binding of DBP to the SA biosensors. A titration of DBP ranging from 0 to 75 μM was prepared. DBP was associated to the loaded tips for 5 minutes and dissociated with buffer solution for 10 minutes.
# Solubility in PBS (A280) = type: physicochemical
# Description: PEG Length and Counterion Affects Solubility: The solubility of the acetate and carbonate salt form of each compound was determined as follows. For EXT611, EXT606, and EXT608, phosphate buffered saline (PBS) was added to each compound to form a saturated solution. Undissolved compound was removed by centrifugation. The concentration of dissolved compound was determined by measuring the absorbance at 280 nm using an extinction coefficient of 18,600 M^−1 cm^−1. For EXT615, EXT616, and EXT617, solubility was limited practically by the high viscosity imparted by the large PEG moieties. Highly viscous drug formulations are difficult to manipulate and require large needle bore sizes that cause increased injection site pain. PBS was added to EXT615, EXT616, and EXT617 incrementally until a solution was obtained that could be successfully pipetted through a pipet tip with a bore of approximately 1 mm diameter (enlarged by removing the end with a razor blade). The concentration of dissolved compound was determined by measuring the absorbance at 280 nm using an extinction coefficient of 18,600 M^−1 cm^−1. […] For EXT608, the acetate salt was 17.6-fold more soluble than the carbonate salt.
smiles,measurement,setting,value
C=C1CC[C@H](OCCCNC(=O)CCOCCOCCOCCOCCOCCOCCOCCOCCOCCOCCOCCOCCOCCOCCOCCOCCOCCOCCOCCOCCOCCOCCOCCOCCOCCOCCOCCOCCOCCOCCOCCOCCOCCOCCOCCOCCNC(=O)CCN2C(=O)CC(SC[C@H](NC(=O)[C@H](Cc3ccccc3)NC(=O)[C@H](CC(N)=O)NC(=O)[C@H](Cc3c[nH]cn3)NC(=O)[C@@H](NC(=O)[C@H](CC(=O)O)NC(=O)[C@H](CCC(N)=O)NC(=O)[C@H](CC(C)C)NC(=O)[C@H](CCCCN)NC(=O)[C@H](CCCCN)NC(=O)[C@H](CCCNC(=N)N)NC(=O)[C@H](CC(C)C)NC(=O)[C@H](Cc3c[nH]c4ccccc34)NC(=O)[C@H](CCC(=O)O)NC(=O)[C@@H](NC(=O)[C@H](CCCNC(=N)N)NC(=O)[C@H](CCC(=O)O)NC(=O)[C@H](CCSC)NC(=O)[C@H](CO)NC(=O)[C@H](CC(N)=O)NC(=O)[C@H](CC(C)C)NC(=O)[C@H](Cc3c[nH]cn3)NC(=O)[C@H](CCCCN)NC(=O)CNC(=O)[C@H](CC(C)C)NC(=O)[C@H](CC(N)=O)NC(=O)[C@H](Cc3c[nH]cn3)NC(=O)[C@H](CCSC)NC(=O)[C@H](CC(C)C)NC(=O)[C@H](CCC(N)=O)NC(=O)[C@@H](NC(=O)[C@H](CCC(=O)O)NC(=O)[C@H](CO)NC(=O)[C@@H](NC(=O)[C@@H](N)CO)C(C)C)[C@@H](C)CC)C(C)C)C(C)C)C(N)=O)C2=O)C/C1=C/C=C1\CCC[C@]2(C)[C@@H]([C@H](C)CCCC(C)(C)O)CC[C@@H]12 (some centres unmarked) [EXT608],effect on urinary calcium,[1],did not cause a significant increase
same,Kd,[2],5.2 µM
same,"fold more soluble, acetate salt vs carbonate salt",Solubility in PBS (A280),17.6 fold
same,solubility,"Solubility in PBS (A280); acetate salt, read-out: Solubility as Acetate",9.67 mM
same,solubility,"Solubility in PBS (A280); carbonate salt, read-out: Solubility as Carbonate",0.55 mM
